How the values were obtained:
[1] = target: T1, f-5A chimera (catalytic module of T. fusca family-5 endoglucanase Cel5A fused to a dockerin from Ruminococcus …); experiment: non-denaturing PAGE mobility shift, equimolar mixture
T1 construct: Recombinant chimera expressed in E. coli; all enzyme constructs were designed to contain a His-tag; also called variant Cel5A
T1 chain: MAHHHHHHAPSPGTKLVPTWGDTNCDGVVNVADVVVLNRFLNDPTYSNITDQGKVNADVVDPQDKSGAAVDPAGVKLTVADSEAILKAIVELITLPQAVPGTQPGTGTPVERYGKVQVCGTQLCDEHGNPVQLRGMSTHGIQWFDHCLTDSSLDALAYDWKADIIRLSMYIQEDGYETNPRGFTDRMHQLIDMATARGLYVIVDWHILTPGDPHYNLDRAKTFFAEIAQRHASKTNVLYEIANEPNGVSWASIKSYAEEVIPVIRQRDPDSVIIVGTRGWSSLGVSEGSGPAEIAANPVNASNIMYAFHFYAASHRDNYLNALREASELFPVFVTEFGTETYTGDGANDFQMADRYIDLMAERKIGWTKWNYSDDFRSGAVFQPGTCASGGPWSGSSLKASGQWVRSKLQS

[2] = target: T2, 11A-XBM-a chimera (catalytic module of T. fusca Xyn11A together with its adjacent XBM attached to dockerin B …); experiment: affinity-based ELISA; complex formation also by non-denaturing PAGE
T2 construct: Recombinant chimera expressed in E. coli, purified on a Ni column (His-tag); also called variant Xyn11A

[3] = target: T3, 11A-a chimera (catalytic module of T. fusca Xyn11A attached directly to dockerin B from Acetivibrio …); experiment: as above
T3 construct: Recombinant chimera expressed in E. coli, purified on a Ni column (His-tag)

Measured: binding result

B1: Scaf-AF chimeric scaffoldin (cohesin 3 from A. cellulolyticus scaffoldin C, CBM3a from C. thermocellum, cohesin 1 from R. flavefaciens scaffoldin B) (other)
chain: MDLQVDIGSTSGKAGSVVSVPITFTNVPKSGIYALSFRTNFDPQKVTVASIDAGSLIENASDFTTYYNNENGFASMTFEAPVDRARIIDSDGVFATINFKVSDSAKVGELYNITTNSAYTSFYYSGTDEIKNVVYNDGKIEVIASVPTNTPTNTPANTPVSGNLKVEFYNSNPSDTTNSINPQFKVTNTGSSAIDLSKLTLRYYYTVDGQKDQTFWCDHAAIIGSNGSYNGITSNVKGTFVKMSSSTNNADTYLEISFTGGTLEPGAHVQIQGRFAKNDWSNYTQSNDYSFKSASQFVEWDQVTAYLNGVLVWGKEPGGSVVPSTQPVTTPPATTKPPATTIPPSEDPAGGLSAVQPNVSLGEVLDVSANRTAADGTVEWLIPTVTAAPGQTVTMPVVVKSSSLAVAGAQFKIQAATGVSYSSKTDGDAYGSGIVYNNSKYAFGQGAGRGIVAADDSVVLTLAYTVPADCAEGTYDVKWSDAFVSDTDGQNITSKVTLTDGAIIVHHHHHH
binds: all assays above

Source: US20120301930A1 (YEDA RESEARCH AND DEVELOPMENT, published 2012)
